Laboratory results reported in patent publication US20230212268A1 (UNM RAINFOREST INNOVATIONS, published 2023).

Columns and labels:
[1] = biological target: recombinant BDBV glycoprotein (BDBV (Bundibugyo ebolavirus)); assay: ELISA dose-response fit, reference scFv22-1
[2] = biological target: T1, recombinant MARV glycoprotein (MARV (marburgvirus, Ravn), UniProt Q1PDC7 19-648); assay: maximal binding from ELISA dose-response fit
T1 sequence: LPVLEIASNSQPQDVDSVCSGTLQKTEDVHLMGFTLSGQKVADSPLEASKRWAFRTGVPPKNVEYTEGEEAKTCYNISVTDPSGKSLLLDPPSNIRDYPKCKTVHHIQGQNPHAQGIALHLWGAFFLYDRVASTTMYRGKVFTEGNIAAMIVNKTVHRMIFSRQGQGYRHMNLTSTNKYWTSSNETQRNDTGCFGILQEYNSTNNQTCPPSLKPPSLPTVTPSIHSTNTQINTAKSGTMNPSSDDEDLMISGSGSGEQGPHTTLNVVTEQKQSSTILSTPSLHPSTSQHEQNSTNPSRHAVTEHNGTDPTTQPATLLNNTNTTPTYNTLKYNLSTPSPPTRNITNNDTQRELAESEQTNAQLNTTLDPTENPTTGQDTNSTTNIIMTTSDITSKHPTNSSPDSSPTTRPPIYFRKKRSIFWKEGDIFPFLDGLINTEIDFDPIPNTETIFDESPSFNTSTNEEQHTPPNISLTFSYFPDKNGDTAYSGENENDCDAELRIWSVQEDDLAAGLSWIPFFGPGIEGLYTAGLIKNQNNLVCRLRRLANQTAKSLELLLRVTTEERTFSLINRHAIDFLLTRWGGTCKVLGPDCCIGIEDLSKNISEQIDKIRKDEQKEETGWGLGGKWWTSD

[3] = biological target: T2, recombinant SUDV glycoprotein (SUDV (Sudan ebolavirus), UniProt Q7T9D9 33-650); assay: maximal binding from ELISA dose-response fit
T2 sequence: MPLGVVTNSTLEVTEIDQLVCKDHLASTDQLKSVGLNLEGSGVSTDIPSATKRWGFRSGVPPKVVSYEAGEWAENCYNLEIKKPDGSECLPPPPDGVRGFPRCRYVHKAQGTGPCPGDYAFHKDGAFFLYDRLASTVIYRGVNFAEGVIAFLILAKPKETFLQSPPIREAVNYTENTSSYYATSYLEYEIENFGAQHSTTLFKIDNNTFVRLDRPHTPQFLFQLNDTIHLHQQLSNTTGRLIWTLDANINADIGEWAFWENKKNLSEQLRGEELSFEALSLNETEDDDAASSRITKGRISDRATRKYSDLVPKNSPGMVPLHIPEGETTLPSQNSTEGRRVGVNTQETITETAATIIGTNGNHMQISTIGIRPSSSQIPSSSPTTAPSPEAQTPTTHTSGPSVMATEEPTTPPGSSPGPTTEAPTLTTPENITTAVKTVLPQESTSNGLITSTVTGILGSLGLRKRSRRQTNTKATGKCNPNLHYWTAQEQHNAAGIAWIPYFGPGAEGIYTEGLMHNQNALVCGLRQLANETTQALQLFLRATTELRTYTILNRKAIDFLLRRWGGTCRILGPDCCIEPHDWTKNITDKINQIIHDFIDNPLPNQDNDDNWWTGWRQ

[4] = biological target: T3, recombinant TAFV glycoprotein (TAFV (Tai Forest virus), UniProt Q66810 33-650); assay: maximal binding from ELISA dose-response fit
T3 sequence: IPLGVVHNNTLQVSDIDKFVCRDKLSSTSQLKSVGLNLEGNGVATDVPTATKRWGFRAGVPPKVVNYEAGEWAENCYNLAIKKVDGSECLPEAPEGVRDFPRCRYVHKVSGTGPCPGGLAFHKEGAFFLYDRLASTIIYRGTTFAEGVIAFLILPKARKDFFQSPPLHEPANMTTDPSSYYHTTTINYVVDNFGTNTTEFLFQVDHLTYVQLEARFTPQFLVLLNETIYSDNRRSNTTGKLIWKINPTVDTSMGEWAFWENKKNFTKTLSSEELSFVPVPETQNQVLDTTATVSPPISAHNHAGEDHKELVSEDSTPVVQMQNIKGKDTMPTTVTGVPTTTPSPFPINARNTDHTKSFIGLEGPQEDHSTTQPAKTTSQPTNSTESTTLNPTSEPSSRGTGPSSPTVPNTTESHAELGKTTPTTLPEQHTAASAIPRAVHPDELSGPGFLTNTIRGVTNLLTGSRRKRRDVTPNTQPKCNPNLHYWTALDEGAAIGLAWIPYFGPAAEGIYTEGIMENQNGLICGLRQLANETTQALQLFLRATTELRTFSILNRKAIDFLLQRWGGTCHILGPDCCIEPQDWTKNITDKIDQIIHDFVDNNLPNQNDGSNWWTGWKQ

[5] = biological target: T4, recombinant RESTV glycoprotein (RESTV (Reston ebolavirus), UniProt Q66799 34-651); assay: maximal binding from ELISA dose-response fit
T4 sequence: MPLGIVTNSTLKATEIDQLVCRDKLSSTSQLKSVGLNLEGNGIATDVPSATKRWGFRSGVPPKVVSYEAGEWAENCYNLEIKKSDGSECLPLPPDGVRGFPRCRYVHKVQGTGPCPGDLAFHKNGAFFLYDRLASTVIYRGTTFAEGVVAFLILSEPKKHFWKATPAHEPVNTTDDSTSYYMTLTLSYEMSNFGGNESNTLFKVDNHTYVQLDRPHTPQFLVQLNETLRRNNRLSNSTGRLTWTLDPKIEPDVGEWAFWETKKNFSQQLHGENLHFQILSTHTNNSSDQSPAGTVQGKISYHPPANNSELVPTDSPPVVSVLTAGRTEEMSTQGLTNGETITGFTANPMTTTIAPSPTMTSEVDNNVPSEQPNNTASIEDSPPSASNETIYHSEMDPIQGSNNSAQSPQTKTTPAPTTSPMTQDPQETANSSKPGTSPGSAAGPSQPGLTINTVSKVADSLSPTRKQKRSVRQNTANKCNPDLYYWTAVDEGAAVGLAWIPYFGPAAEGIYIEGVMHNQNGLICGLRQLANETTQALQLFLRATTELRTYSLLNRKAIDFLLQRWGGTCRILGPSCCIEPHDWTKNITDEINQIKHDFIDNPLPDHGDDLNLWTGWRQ

B1: EbovGPscFv4-2 (scFv)
scFv: MAWSHPQFEKTGSGGAELVKSGASVKLSCTASGFNIKDDYMHWVKQRPEQGLEWIGWIDPENGDTEYASKFQGKATITADTSSNTAYLQLSSLTSEDTAVYYCTTYYYGSAWFAYWGQGTLVTVSAGGGGSGGGGSGGGGSGGGGSASLSVSVGETVTITCRASGNIHNYLAWYQQKQGKSPQLLVYNAKTLADGVPSRFSGSGSGTQYSLKINNLQPEDFGSYYCQHFWSTPYTFGGGTKLEIKRADAAPTVSIFPPSSEQLTSGGASVVCFLNNFTHCQELQQDECS
[1]
  fold affinity against scFv22-1: 2 fold
[2]
  Bmax signal: 380000 relative absorbance units
[3]
  Bmax signal: 280000 relative absorbance units
[4]
  Bmax signal: 280000 relative absorbance units
[5]
  Bmax signal: 210000 relative absorbance units
